According to PMC3334620:

What was measured:
[1] = biological target: T1, Cin5 (Saccharomyces cerevisiae) (UniProt P40917); conditions: 100 nM
T1 sequence: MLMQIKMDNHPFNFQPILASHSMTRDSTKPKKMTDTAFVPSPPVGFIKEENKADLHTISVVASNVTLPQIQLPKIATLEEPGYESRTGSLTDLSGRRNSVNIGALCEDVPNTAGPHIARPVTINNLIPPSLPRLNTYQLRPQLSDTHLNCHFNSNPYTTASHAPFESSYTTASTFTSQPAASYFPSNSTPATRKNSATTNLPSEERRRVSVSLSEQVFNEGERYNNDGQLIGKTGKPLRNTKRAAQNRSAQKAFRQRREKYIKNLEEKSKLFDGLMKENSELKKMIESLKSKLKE

[2] = biological target: T2, Sko1 (Saccharomyces cerevisiae) (UniProt Q02100); conditions: 200 nM
T2 sequence: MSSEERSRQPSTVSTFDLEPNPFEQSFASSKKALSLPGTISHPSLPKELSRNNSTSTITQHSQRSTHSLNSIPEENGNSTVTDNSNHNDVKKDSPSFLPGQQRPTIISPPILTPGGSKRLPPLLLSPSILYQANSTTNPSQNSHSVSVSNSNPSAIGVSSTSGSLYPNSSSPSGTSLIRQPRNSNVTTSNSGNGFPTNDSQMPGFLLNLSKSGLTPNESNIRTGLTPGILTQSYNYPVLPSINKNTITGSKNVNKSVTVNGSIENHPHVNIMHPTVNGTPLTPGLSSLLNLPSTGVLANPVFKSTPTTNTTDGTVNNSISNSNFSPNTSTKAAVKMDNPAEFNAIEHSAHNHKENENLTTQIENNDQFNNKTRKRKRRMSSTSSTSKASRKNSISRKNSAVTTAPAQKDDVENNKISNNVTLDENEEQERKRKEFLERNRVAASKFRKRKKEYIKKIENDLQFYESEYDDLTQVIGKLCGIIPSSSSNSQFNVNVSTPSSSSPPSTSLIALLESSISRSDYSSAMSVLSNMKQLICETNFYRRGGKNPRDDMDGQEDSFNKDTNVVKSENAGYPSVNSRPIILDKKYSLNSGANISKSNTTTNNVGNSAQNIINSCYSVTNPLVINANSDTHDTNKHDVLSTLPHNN

[3] = biological target: T3, Yap3 (Saccharomyces cerevisiae) (UniProt P38749); conditions: 100 nM
T3 sequence: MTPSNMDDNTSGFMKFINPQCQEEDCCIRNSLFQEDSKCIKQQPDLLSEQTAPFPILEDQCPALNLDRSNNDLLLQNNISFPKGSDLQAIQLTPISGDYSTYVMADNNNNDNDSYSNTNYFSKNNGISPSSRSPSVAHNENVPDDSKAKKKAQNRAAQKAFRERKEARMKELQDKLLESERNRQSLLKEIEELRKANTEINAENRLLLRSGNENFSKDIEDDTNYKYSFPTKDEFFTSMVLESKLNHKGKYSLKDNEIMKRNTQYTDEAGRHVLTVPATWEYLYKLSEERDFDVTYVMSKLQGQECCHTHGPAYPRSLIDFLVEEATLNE

[4] = biological target: T4, Yer184c (Saccharomyces cerevisiae) (UniProt P39961); conditions: 100 nM
T4 sequence: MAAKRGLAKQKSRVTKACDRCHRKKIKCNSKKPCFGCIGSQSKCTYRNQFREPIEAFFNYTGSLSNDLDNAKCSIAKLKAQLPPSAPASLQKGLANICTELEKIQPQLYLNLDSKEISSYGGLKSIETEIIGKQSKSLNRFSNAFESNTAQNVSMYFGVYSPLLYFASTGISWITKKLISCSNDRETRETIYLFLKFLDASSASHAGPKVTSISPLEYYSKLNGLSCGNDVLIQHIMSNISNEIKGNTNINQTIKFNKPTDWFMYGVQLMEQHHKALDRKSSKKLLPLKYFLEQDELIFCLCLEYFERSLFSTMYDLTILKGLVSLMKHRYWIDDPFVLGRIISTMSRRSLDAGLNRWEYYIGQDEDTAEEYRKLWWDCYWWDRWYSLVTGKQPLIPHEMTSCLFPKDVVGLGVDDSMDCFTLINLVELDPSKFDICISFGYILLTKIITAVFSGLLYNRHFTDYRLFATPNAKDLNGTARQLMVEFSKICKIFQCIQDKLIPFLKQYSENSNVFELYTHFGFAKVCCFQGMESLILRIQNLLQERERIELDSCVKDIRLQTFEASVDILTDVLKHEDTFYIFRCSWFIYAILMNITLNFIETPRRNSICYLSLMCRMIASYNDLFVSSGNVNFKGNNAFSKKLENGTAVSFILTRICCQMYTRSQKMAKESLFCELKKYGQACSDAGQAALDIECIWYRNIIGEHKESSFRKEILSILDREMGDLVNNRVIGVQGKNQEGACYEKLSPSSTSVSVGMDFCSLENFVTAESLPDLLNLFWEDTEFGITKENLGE

[5] = biological target: T5, Sut1 (Saccharomyces cerevisiae) (UniProt P53032); conditions: 200 nM
T5 sequence: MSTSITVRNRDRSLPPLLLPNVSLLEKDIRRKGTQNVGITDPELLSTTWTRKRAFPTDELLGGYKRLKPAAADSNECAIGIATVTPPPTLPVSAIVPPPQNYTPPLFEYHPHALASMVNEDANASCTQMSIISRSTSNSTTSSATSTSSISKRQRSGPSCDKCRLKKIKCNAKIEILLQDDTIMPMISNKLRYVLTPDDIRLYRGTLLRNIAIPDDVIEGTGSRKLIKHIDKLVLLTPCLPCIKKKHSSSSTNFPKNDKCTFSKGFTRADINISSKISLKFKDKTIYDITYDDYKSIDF

[6] = biological target: T6, Cad1 (Saccharomyces cerevisiae) (UniProt P24813); conditions: 100 nM
T6 sequence: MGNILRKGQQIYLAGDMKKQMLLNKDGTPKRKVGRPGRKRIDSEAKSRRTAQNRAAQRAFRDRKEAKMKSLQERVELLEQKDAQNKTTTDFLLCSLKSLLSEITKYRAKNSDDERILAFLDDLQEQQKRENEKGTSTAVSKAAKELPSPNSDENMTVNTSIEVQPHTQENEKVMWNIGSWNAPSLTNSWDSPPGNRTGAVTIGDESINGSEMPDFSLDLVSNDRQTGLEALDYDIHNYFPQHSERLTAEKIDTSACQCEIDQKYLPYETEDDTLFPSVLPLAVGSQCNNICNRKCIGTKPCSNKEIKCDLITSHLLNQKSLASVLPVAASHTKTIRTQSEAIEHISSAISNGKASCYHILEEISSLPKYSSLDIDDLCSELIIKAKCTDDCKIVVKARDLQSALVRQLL

[7] = biological target: T7, Pdr3 (Saccharomyces cerevisiae) (UniProt P33200); conditions: 200 nM
T7 sequence: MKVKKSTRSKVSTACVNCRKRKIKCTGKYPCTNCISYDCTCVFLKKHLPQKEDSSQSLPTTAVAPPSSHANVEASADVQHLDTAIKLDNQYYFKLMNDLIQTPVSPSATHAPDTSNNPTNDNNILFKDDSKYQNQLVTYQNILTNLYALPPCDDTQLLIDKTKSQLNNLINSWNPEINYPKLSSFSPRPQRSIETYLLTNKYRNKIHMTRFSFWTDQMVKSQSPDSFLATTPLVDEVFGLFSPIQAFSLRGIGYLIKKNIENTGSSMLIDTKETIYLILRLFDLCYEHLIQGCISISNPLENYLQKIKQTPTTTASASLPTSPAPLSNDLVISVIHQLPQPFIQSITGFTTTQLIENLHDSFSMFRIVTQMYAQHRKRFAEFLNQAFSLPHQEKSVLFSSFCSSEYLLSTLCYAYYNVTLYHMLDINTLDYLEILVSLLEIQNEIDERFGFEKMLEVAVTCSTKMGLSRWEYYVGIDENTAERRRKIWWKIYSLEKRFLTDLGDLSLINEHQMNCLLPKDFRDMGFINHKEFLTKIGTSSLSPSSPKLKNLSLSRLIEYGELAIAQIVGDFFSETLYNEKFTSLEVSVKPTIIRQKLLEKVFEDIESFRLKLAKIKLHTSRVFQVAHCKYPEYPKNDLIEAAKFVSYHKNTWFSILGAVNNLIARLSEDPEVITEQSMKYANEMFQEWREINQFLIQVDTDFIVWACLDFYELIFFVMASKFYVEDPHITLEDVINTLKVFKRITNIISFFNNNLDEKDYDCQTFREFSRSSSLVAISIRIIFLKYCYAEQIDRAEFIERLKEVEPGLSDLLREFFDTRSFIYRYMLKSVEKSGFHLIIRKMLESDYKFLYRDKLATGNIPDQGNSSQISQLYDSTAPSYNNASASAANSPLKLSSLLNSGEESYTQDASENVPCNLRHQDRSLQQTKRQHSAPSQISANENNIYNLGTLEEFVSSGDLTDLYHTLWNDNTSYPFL

Row | Sequence | binding signal (PBM E-score (-0.5 to 0.5)) [1] | binding signal (PBM E-score (-0.5 to 0.5)) [4] | further results
1 | ACGTAAGC (double strand) [8-mer ACGTAAGC] | 0.483 | – | –
2 | ACGTAATA (double strand) [8-mer ACGTAATA] | 0.455 | – | binding signal (PBM E-score (-0.5 to 0.5)) [2]: 0.493
3 | ACGTAATC (double strand) [8-mer ACGTAATC] | 0.496 | – | binding signal (PBM E-score (-0.5 to 0.5)) [3]: 0.462
4 | ACTCCGGA (double strand) [8-mer ACTCCGGA] | – | 0.459 | binding signal (PBM E-score (-0.5 to 0.5)) [5]: 0.495
5 | ATTAATAA (double strand) [8-mer ATTAATAA] | – | – | binding signal (PBM E-score (-0.5 to 0.5)) [6]: 0.46
6 | ATTACGTA (double strand) [8-mer ATTACGTA] | 0.49 | – | binding signal (PBM E-score (-0.5 to 0.5)) [2]: 0.497; binding signal (PBM E-score (-0.5 to 0.5)) [3]: 0.478
7 | ATTACTAA (double strand) [8-mer ATTACTAA] | – | – | binding signal (PBM E-score (-0.5 to 0.5)) [6]: 0.492; binding signal (PBM E-score (-0.5 to 0.5)) [3]: 0.479
8 | ATTAGTAA (double strand) [8-mer ATTAGTAA] | – | – | binding signal (PBM E-score (-0.5 to 0.5)) [6]: 0.49; binding signal (PBM E-score (-0.5 to 0.5)) [3]: 0.487
9 | ATTAGTCA (double strand) [8-mer ATTAGTCA] | – | – | binding signal (PBM E-score (-0.5 to 0.5)) [6]: 0.491
10 | ATTTGTCA (double strand) [8-mer ATTTGTCA] | – | – | binding signal (PBM E-score (-0.5 to 0.5)) [6]: 0.465
11 | CCGGAAAA (double strand) [8-mer CCGGAAAA] | – | 0.46 | –
12 | CCGGCCGG (double strand) [8-mer CCGGCCGG] | – | 0.486 | –
13 | CGCCGGCG (double strand) [8-mer CGCCGGCG] | – | 0.485 | –
14 | CGTAAGCA (double strand) [8-mer CGTAAGCA] | 0.463 | – | –
15 | CGTAATCA (double strand) [8-mer CGTAATCA] | 0.458 | – | –
16 | CTGACTAA (double strand) [8-mer CTGACTAA] | – | – | binding signal (PBM E-score (-0.5 to 0.5)) [6]: 0.488

Row | Sequence | binding signal (PBM E-score (-0.5 to 0.5)) [1] | binding signal (PBM E-score (-0.5 to 0.5)) [4] | further results
17 | CTTACGTA (double strand) [8-mer CTTACGTA] | 0.472 | – | –
18 | CTTACTAA (double strand) [8-mer CTTACTAA] | – | – | binding signal (PBM E-score (-0.5 to 0.5)) [6]: 0.484
19 | CTTAGTAA (double strand) [8-mer CTTAGTAA] | – | – | binding signal (PBM E-score (-0.5 to 0.5)) [6]: 0.471
20 | GCCGCGGC (double strand) [8-mer GCCGCGGC] | – | 0.475 | –
21 | GTCCGGAC (double strand) [8-mer GTCCGGAC] | – | 0.464 | –
22 | TATCCGGA (double strand) [8-mer TATCCGGA] | – | 0.454 | –
23 | TCCGCGGA (double strand) [8-mer TCCGCGGA] | – | 0.481 | binding signal (PBM E-score (-0.5 to 0.5)) [7]: 0.5
24 | TCGGCCGA (double strand) [8-mer TCGGCCGA] | – | 0.473 | –
25 | TGACATAA (double strand) [8-mer TGACATAA] | 0.462 | – | –
26 | TGACGTAA (double strand) [8-mer TGACGTAA] | 0.453 | – | binding signal (PBM E-score (-0.5 to 0.5)) [2]: 0.498
27 | TTACATAA (double strand) [8-mer TTACATAA] | 0.488 | – | –
28 | TTACCTAA (double strand) [8-mer TTACCTAA] | 0.451 | – | –
29 | TTACGTAA (double strand) [8-mer TTACGTAA] | 0.497 | – | binding signal (PBM E-score (-0.5 to 0.5)) [6]: 0.48; binding signal (PBM E-score (-0.5 to 0.5)) [2]: 0.496; binding signal (PBM E-score (-0.5 to 0.5)) [3]: 0.496
30 | TTATATAA (double strand) [8-mer TTATATAA] | 0.456 | – | –
31 | TTCCGGAA (double strand) [8-mer TTCCGGAA] | – | 0.467 | binding signal (PBM E-score (-0.5 to 0.5)) [7]: 0.492
